Assay results taken from IntAct's records for PubMed 37100772.

B1: Nucleoprotein (Zaire ebolavirus (strain Mayinga-76)), P18272 (parent)
chain: MDSRPQKIWMAPSLTESDMDYHKILTAGLSVQQGIVRQRVIPVYQVNNLEEICQLIIQAFEAGVDFQESADSFLLMLCLHHAYQGDYKLFLESGAVKYLEGHGFRFEVKKRDGVKRLEELLPAVSSGKNIKRTLAAMPEEETTEANAGQFLSFASLFLPKLVVGEKACLEKVQRQIQVHAEQGLIQYPTAWQSVGHMMVIFRLMRTNFLIKFLLIHQGMHMVAGHDANDAVISNSVAQARFSGLLIVKTVLDHILQKTERGVRLHPLARTAKVKNEVNSFKAALSSLAKHGEYAPFARLLNLSGVNNLEHGLFPQLSAIALGVATAHGSTLAGVNVGEQYQQLREAATEAEKQLQQYAESRELDHLGLDDQEKKILMNFHQKKNEISFQQTNAMVTLRKERLAKLTEAITAASLPKTSGHYDDDDDIPFPGPINDDDNPGHQDDDPTDSQDTTIPDVVVDPDDGSYGEYQSYSENGMNAPDDLVLFDLDEDDEDTKPVPNRSTKGGQQKNSQKGQHIEGRQTQSRPIQNVPGPHRTIHHASAPLTDNDRRNEPSGSTSPRMLTPINEEADPLDDADDETSSLPPLESDDEEQDRDGTSNRTPTVAPPAPVYRDHSEKKELPQDEQQDQDHTQEARNQDSDNTQSEHSFEEMYRHILRSQGPFDAVLYYHMMKDEPVVFSTSDGKEYTYPDSLEEEYPPWLTEKEAMNEENRFVTLDGQQFYWPVMNHKNKFMAILQHHQ
partner: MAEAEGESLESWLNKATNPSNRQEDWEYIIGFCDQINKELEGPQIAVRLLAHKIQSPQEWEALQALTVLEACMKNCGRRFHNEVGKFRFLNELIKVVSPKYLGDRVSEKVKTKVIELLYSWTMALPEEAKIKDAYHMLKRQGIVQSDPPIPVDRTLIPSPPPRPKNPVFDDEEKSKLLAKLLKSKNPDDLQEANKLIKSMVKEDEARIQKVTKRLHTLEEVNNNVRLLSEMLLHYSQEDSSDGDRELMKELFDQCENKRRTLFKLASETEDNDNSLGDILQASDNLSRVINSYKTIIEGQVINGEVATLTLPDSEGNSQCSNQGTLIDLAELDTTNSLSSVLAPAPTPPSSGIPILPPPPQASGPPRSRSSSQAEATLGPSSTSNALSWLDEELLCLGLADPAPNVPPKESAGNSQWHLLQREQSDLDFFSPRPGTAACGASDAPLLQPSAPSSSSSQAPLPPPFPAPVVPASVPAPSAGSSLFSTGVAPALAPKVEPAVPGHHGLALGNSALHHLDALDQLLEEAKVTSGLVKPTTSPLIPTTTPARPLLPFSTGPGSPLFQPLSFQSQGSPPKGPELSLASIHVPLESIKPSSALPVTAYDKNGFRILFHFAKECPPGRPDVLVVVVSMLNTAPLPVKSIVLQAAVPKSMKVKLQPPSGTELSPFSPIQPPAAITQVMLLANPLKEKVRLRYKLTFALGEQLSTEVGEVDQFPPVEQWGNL
B2: Nucleoprotein (Zaire ebolavirus (strain Mayinga-76)), P18272 (parent)
chain: B1 chain

Variants of: B1
Conditions: with gga3_human GGA3, Q9NZ52

Row | Variant | effect of a mutation on the interaction
1 | Y469A | disrupting interaction strength

Variants of: B2
Conditions: with ap2m1_human AP2M1, Q96CW1
Chain of ap2m1_human AP2M1, Q96CW1 (Q96CW1 whole entry): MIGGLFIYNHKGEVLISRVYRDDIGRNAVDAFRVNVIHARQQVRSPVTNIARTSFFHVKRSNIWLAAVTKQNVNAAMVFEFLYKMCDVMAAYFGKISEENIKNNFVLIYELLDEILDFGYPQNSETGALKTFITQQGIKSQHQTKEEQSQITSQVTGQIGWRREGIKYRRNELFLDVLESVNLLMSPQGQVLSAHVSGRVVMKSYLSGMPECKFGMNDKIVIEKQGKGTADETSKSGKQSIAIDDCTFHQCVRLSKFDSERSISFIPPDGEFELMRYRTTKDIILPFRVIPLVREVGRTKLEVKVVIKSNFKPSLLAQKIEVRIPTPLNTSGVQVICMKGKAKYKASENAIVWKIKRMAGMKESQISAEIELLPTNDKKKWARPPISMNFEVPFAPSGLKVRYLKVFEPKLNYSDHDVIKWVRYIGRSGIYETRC

Row | Variant | effect of a mutation on the interaction
2 | Y340A;L343A | with no effect
